Test results published in patent US20090010911A1, “METHODS AND COMPOSITIONS FOR AFFECTING CYCLOPHILIN A REGULATION OF KINASES IN MODULATING CELLULAR ACTIVITIES” (IOWA STATE UNIVERSITY RESEARCH FOUNDATION, INC., priority 2007, published 2009).

T1: Itk full-length enzyme (Mus musculus, UniProt Q03526)
T1 construct: Full-length Itk, Btk and Tec and the Itk kinase domain fragments were PCR amplified; made in house; host or cells: Sf9 insect cells (baculovirus), co-infected 1:1 with Lck baculovirus
T1 sequence (Q03526 1-625): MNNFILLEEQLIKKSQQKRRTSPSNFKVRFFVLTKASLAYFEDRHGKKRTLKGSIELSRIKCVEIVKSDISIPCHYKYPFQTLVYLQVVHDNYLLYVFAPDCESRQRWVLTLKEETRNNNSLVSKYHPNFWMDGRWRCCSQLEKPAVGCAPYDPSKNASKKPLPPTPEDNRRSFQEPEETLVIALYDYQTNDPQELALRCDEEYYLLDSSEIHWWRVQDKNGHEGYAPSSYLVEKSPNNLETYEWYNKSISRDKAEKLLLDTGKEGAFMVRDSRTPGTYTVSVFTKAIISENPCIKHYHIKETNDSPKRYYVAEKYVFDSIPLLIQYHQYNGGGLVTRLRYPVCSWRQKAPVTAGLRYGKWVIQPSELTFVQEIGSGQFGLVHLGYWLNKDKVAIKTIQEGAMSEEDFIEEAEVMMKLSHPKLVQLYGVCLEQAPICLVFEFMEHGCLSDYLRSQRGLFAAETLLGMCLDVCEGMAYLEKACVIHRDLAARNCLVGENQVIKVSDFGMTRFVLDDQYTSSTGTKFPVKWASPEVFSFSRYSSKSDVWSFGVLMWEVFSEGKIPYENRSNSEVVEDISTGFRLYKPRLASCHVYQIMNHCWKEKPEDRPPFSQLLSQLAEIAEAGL


Target: T1, Itk full-length enzyme
Assay: In vitro kinase assay with western blotting, phosphorylation of SH2 domain-containing substrates with added free SH2 domain or CypA
Assay type: biochemical
Protocol: Substrate used in each experiment is indicated above each set of blots. 4(a) (left) Itk 32 substrate was incubated with Itk full-length enzyme as before (lane 1), or with Itk 32 domain:free Itk SH2 domain in ratios of 1:10, 1:25 or 1:50 (lanes 2-4, respectively) or equivalent ratios of PI3K N-terminal SH2 domain (lanes 5-7) and subjected to an in vitro kinase assay. […] Coomassie stain and an anti-FLAG blot (bottom panels) show protein levels. (right) The PLCγ1 SH2 domain competes with the PLCγ1 substrate in a similar manner. Lane 1 contains only Itk enzyme and PLCγ1 SH2C-Y783-substrate without additional free SH2 domain. Ratios of free SH2 domain to substrate are 1:5, 1:10 or 1:50 in lanes 2-4, respectively and equivalent ratios of PI3K SH2 domain are used in lanes 5-7. Coomassie stain of the gel and an anti-Itk blot (bottom panels) show protein levels. 4(b) Same experiment as shown in (a) using the Grb2 SH2 domain as a control. (left) Itk 32 substrate was incubated with Itk full-length enzyme (lane 1), or with Itk 32 domain:free Itk SH2 domain in ratios of 1:10 and 1:25 (lanes 2 & 3) or equivalent ratios of Grb2 SH2 domain (lanes 4 & 5) and subjected to an in vitro kinase assay. (right) Identical experiment following PLCγ1 substrate phosphorylation in the presence of the PLCγ1 and Grb2 SH2 domains. Lane 1 is PLCγ1 substrate alone; lanes 2 & 3 are PLCγ1 substrate:PLCγ1 SH2 domain in a 1:10 and 1:25 ratio, respectively and lanes 4 & 5 are identical ratios of PLCγ1 substrate:Grb2 SH2 domain. 4(c) The Itk SH2 domain competes with autophosphorylation of Y180 within full length Itk. For lanes 2-4, the amount of free SH2 domain is the same as used in panel (a), lanes 2-4. No exogenous SH2 domain has been added in lane 1 and full length Itk is both the enzyme and the substrate. Coomassie stain and an anti-FLAG blot (bottom panels) show protein levels. […] Initial velocities are shown for phosphorylation of peptide B (sequence shown in FIG. 5a) by full length Itk in the absence (column 1) and presence (column 2 and 3) of Itk SH2 domain. […]

Row | Molecule | inhibition of PLCγ1 SH2C-Y783- substrate phosphorylation by free SH2 domain (substrate:free SH2 domain ratios 1:5 to 1:50) | autophosphorylation of Tyr 180 within full length Itk upon addition of free SH2 domain (full length Itk is both enzyme and substrate) | inhibition of Itk 32 substrate phosphorylation (Y180) by free SH2 domain (substrate:free SH2 domain ratios 1:10, 1:25, 1:50)
1 | PLCγ1 SH2C domain: isolated carboxy-terminal SH2 domain of PLCγ1 (protein) QTNAHESKEWYHASLTRAQAEHMLMRVPRDGAFLVRKRNEPNSYAISFRAEGKIKHCRVQQEGQTVMLGNSEFDSLVDLISYYEKHPLYRKMKLRYPI | inhibits substrate phosphorylation | – | –
2 | Itk SH2 domain: isolated exogenous SH2 domain of Itk, purified from bacteria (protein) EWYNKSISRDKAEKLLLDTGKEGAFMVRDSRTPGTYTVSVFTKAIISENPCIKHYHIKETNDSPKRYYVAEKYVFDSIPLLIQYHQYNGGGLVTRLRYPVCSWRQKA | – | greatly diminished | inhibits substrate phosphorylation
